Experimental data taken from patent publication US20210253718A1 (MODMAB THERAPEUTICS, published 2021).
One block for each binder: values may come before it.

Tests used:
[1] = molecular target: T1, recombinant human FZD5-Fc chimera (R&D Systems, Catalog no. 1617-FZ) (human, UniProt Q13467 27-167); experiment: SPR, Frizzled-Fc chimera;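 note: binding targets are Fc fusions carrying an extracellular Frizzled fragment that contains the CRD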
T1 construct: used for selection and ELISA; Fc part of the bought chimera not given
T1 sequence: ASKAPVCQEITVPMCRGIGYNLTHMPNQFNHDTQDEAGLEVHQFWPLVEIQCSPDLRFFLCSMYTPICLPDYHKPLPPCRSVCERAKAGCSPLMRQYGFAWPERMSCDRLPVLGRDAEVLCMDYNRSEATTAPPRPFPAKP

FZD8-Fc = molecular target: T2, FZD8-Fc (UniProt Q9H461 28-158, limits assumed); experiment: SPR, Frizzled-Fc chimera;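 note: binding targets are Fc fusions carrying an extracellular Frizzled fragment that contains the CRD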
T2 construct: extracellular domain; also called Frizzled-Fc chimera (FZD8); not shown: Fc part
T2 sequence (looked up): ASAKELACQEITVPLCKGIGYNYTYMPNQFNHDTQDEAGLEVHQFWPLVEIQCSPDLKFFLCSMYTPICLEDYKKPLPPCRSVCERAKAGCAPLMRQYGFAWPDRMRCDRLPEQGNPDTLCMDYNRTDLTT

[2] = molecular target: T3, FZD8 cysteine-rich domain (CRD), MYC-tagged and GPI-anchored on CHO cells (human, UniProt Q498S8 31-155 (rat entry), GPI anchor); experiment: flow cytometry, CHO-CRD cells;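 note: flow cytometry of Fab binding to CHO cells overexpressing a Frizzled CRD, with binding defined as median fluorescence over twice that of CHO cells lacking any Frizzled CRD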
T3 construct: also called FZD8 CRD; CHO-myc-FZDGPI; not shown: MYC tag and GPI anchor signal
T3 sequence: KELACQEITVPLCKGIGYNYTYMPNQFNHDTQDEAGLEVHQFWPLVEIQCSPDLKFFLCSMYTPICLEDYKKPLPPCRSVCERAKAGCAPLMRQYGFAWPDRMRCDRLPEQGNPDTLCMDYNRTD

[3] = molecular target: T4, FZD4 cysteine-rich domain (CRD), MYC-tagged and GPI-anchored on CHO cells (human, UniProt Q9ULV1 42-167, GPI anchor); experiment: flow cytometry, CHO-CRD cells;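 note: flow cytometry of Fab binding to CHO cells overexpressing a Frizzled CRD, with binding defined as median fluorescence over twice that of CHO cells lacking any Frizzled CRD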
T4 construct: also called FZD4 CRD; CHO-myc-FZDGPI; not shown: MYC tag and GPI anchor signal
T4 sequence: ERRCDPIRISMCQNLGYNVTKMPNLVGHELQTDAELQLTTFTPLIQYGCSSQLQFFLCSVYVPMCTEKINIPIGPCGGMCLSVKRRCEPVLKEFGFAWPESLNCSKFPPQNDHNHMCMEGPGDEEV

[4] = molecular target: FZD1 cysteine-rich domain (CRD), MYC-tagged and GPI-anchored on CHO cells (human); experiment: flow cytometry, CHO-CRD cells;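 note: flow cytometry of Fab binding to CHO cells overexpressing a Frizzled CRD, with binding defined as median fluorescence over twice that of CHO cells lacking any Frizzled CRD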
[5] = molecular target: T5, FZD3 cysteine-rich domain (CRD), MYC-tagged and GPI-anchored on CHO cells (human, UniProt Q9NPG1 24-150, GPI anchor); experiment: flow cytometry, CHO-CRD cells;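 note: flow cytometry of Fab binding to CHO cells overexpressing a Frizzled CRD, with binding defined as median fluorescence over twice that of CHO cells lacking any Frizzled CRD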
T5 construct: domain: cysteine-rich domain (CRD); also called FZD3 CRD; CHO-myc-FZDGPI; not shown: MYC tag and GPI anchor signal
T5 sequence (looked up): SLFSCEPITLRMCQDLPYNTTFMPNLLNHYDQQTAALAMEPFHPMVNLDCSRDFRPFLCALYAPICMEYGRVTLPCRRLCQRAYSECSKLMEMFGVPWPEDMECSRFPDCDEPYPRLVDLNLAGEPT

[6] = molecular target: T6, FZD9 cysteine-rich domain (CRD), MYC-tagged and GPI-anchored on CHO cells (human, UniProt O00144 35-161, GPI anchor); experiment: flow cytometry, CHO-CRD cells
T6 construct: also called FZD9 CRD; CHO-myc-FZDGPI; not shown: MYC tag and GPI anchor signal
T6 sequence: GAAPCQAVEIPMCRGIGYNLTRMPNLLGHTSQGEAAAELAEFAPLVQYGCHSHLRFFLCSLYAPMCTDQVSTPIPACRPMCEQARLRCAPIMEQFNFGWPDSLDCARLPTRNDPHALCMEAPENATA

[7] = molecular target: T7, FZD2 cysteine-rich domain (CRD), MYC-tagged and GPI-anchored on CHO cells (human, UniProt Q14332 35-161); experiment: flow cytometry, CHO-CRD cells
[8] = molecular target: FZD7 cysteine-rich domain (CRD), MYC-tagged and GPI-anchored on CHO cells (human, UniProt O75084 45-169); experiment: flow cytometry, CHO-CRD cells
[9] = molecular target: T8, FZD10 cysteine-rich domain (CRD), MYC-tagged and GPI-anchored on CHO cells (human, UniProt Q9ULW2 30-156, GPI anchor); experiment: flow cytometry, CHO-CRD cells
T8 construct: also called FZD10 CRD; CHO-myc-FZDGPI; not shown: MYC tag and GPI anchor signal
T8 sequence: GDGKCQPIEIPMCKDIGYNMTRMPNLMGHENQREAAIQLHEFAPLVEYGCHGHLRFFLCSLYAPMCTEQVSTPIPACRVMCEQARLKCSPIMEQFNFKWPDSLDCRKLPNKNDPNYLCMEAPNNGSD

[10] = molecular target: T9, FZD6 cysteine-rich domain (CRD), MYC-tagged and GPI-anchored on CHO cells (human, UniProt O60353 20-146, GPI anchor); experiment: flow cytometry, CHO-CRD cells
T9 construct: also called FZD6 CRD; CHO-myc-FZDGPI; not shown: MYC tag and GPI anchor signal
T9 sequence: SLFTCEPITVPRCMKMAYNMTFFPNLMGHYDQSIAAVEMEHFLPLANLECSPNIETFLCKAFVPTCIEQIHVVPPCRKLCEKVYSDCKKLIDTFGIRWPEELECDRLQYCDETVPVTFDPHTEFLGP

[11] = molecular target: T10, FZD5 cysteine-rich domain (CRD), MYC-tagged and GPI-anchored on CHO cells (human, UniProt Q13467 29-156, GPI anchor); experiment: flow cytometry, CHO-CRD cells
T10 construct: also called FZD5 CRD; CHO-myc-FZDGPI; not shown: MYC tag and GPI anchor signal
T10 sequence: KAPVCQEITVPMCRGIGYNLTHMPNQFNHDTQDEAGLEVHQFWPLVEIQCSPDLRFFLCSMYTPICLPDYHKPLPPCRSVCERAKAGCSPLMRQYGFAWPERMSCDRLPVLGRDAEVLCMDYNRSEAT

[12] = molecular target: T4, FZD4 cysteine-rich domain (CRD), …; experiment: immunofluorescence, CHO-CRD cells
[13] = molecular target: T5, FZD3 cysteine-rich domain (CRD), …; experiment: immunofluorescence, CHO-CRD cells
[14] = molecular target: T6, FZD9 cysteine-rich domain (CRD), …; experiment: immunofluorescence, CHO-CRD cells
[15] = molecular target: T8, FZD10 cysteine-rich domain (CRD), …; experiment: immunofluorescence, CHO-CRD cells
[16] = molecular target: T9, FZD6 cysteine-rich domain (CRD), …; experiment: immunofluorescence, CHO-CRD cells
[17] = molecular target: T7, FZD2 cysteine-rich domain (CRD), …; experiment: immunofluorescence, CHO-CRD cells

Kd [1]: 0.0883 nM
koff [1]: 0.000317 s⁻¹
kon [1]: 3.59e+06 M⁻¹ s⁻¹
Kd (FZD8-Fc): 0.056 nM
koff (FZD8-Fc): 0.000238 s⁻¹
kon (FZD8-Fc): 4.25e+06 M⁻¹ s⁻¹
B3: IgG-2920 (antibody, V domains shown)
VH: EVQLVESGGGLVQPGGSLRLSCAASGFNISYYYIHWVRQAPGKGLEWVASIYPSSGSTSYADSVKGRFTISADTSKNTAYLQMNSLRAEDTAVYYCARGGMDYWGQGTLVTVSS
VL: DIQMTQSPSSLSASVGDRVTITCRASQSVSSAVAWYQQKPGKAPKLLIYSASSLYSGVPSRFSGSRSGTDFTLTISSLQPEDFATYYCQQWFAGALITFGQGTKVEIK

kon [1]: 2.77e+06 M⁻¹ s⁻¹
kon (FZD8-Fc): 3.27e+06 M⁻¹ s⁻¹
B6: IgG-2929 (antibody, V domains shown)
VH: EVQLVESGGGLVQPGGSLRLSCAASGFNISYYYIHWVRQAPGKGLEWVASIYPSSSSTSYADSVKGRFTISADTSKNTAYLQMNSLRAEDTAVYYCARGAMDYWGQGTLVTVSS
VL: DIQMTQSPSSLSASVGDRVTITCRASQSVSSAVAWYQQKPGKAPKLLIYSASSLYSGVPSRFSGSRSGTDFTLTISSLQPEDFATYYCQQWYSSYGLITFGQGTKVEIK
notes: also called Fv-2929

More lines, now with the values behind:

B1: IgG-2921 (antibody, V domains shown)
VH: EVQLVESGGGLVQPGGSLRLSCAASGFNISYYYIHWVRQAPGKGLEWVASIYPSSGSTSYADSVKGRFTISADTSKNTAYLQMNSLRAEDTAVYYCARGAMDYWGQGTLVTVSS
VL: DIQMTQSPSSLSASVGDRVTITCRASQSVSSAVAWYQQKPGKAPKLLIYSASSLYSGVPSRFSGSRSGTDFTLTISSLQPEDFATYYCQQWYAGSLITFGQGTKVEIK
Kd [1]: 0.106 nM
koff [1]: 9.81e-05 s⁻¹
kon [1]: 922000 M⁻¹ s⁻¹
Kd (FZD8-Fc): 0.0244 nM
koff (FZD8-Fc): 2.71e-05 s⁻¹
kon (FZD8-Fc): 1.11e+06 M⁻¹ s⁻¹

B2: IgG-2919 (antibody, V domains shown)
VH: EVQLVESGGGLVQPGGSLRLSCAASGFNISYSYIHWVRQAPGKGLEWVASIYSSSGSTSYADSVKGRFTISADTSKNTAYLQMNSLRAEDTAVYYCARGAIDYWGQGTLVTVSS
VL: DIQMTQSPSSLSASVGDRVTITCRASQSVSSAVAWYQQKPGKAPKLLIYSASSLYSGVPSRFSGSRSGTDFTLTISSLQPEDFATYYCQQWYSSGHVLITFGQGTKVEIKR
notes: human IgG1 heavy chain (hG1), human kappa light chain (hK)
Kd [1]: 0.194 nM
koff [1]: 8.06e-05 s⁻¹
kon [1]: 416000 M⁻¹ s⁻¹
Kd (FZD8-Fc): 0.0427 nM
koff (FZD8-Fc): 2.28e-05 s⁻¹
kon (FZD8-Fc): 533000 M⁻¹ s⁻¹

B4: IgG-2910 (antibody, V domains shown)
VH: EVQLVESGGGLVQPGGSLRLSCAASGFNISYSYMHWVRQAPGKGLEWVASIYSSSSSTSYADSVKGRFTISADTSKNTAYLQMNSLRAEDTAVYYCARGAMDYWGQGTLVTVSS
VL: DIQMTQSPSSLSASVGDRVTITCRASQSVSSAVAWYQQKPGKAPKLLIYSASSLYSGVPSRFSGSRSGTDFTLTISSLQPEDFATYYCQQWYGSHLITFGQGTKVEIK
Kd [1]: 0.115 nM
koff [1]: 0.000174 s⁻¹
kon [1]: 1.52e+06 M⁻¹ s⁻¹
Kd (FZD8-Fc): 0.0427 nM
koff (FZD8-Fc): 2.28e-05 s⁻¹
kon (FZD8-Fc): 533000 M⁻¹ s⁻¹

B5: Fab-2927 (Fab, V domains shown)
VH: EVQLVESGGGLVQPGGSLRLSCAASGFNIYYSSMHWVRQAPGKGLEWVASIYPSYGYTSYADSVKGRFTISADTSKNTAYLQMNSLRAEDTAVYYCARYGYYGFDYWGQGTLVTVSS
VL: DIQMTQSPSSLSASVGDRVTITCRASQSVSSAVAWYQQKPGKAPKLLIYSASSLYSGVPSRFSGSRSGTDFTLTISSLQPEDFATYYCQQWGSHGYLITFGQGTKVEIK
notes: Fab; also called Fv-2927
median fluorescence [2]: 10.3
median fluorescence [3]: 5.94
median fluorescence [4]: 18.7
median fluorescence [5]: 4.45
median fluorescence [6]: 3.85
median fluorescence [7]: 17.9
median fluorescence [8]: 16.7
median fluorescence [9]: 3.31
median fluorescence [10]: 3.05
median fluorescence [11]: 28.3
binding result [12]: no binding
binding result [13]: no binding
binding result [14]: no binding
binding result [15]: no binding
binding result [16]: no binding

B7: Fab-2917 (Fab, V domains shown)
VH: EVQLVESGGGLVQPGGSLRLSCAASGFNFSSSSIHWVRQAPGKGLEWVASISSSYGYTYYADSVKGRFTISADTSKNTAYLQMNSLRAEDTAVYYCARAVWYYWWVWGGFDYWGQGTLVTVSS
VL: DIQMTQSPSSLSASVGDRVTITCRASQSVSSAVAWYQQKPGKAPKLLIYSASSLYSGVPSRFSGSRSGTDFTLTISSLQPEDFATYYCQQSSYSLITFGQGTKVEIK
notes: Fab; also called Fv-2917
median fluorescence [3]: 4.14
median fluorescence [5]: 3.46
median fluorescence [6]: 3.49
median fluorescence [7]: 5.57
median fluorescence [8]: 20.5
median fluorescence [9]: 2.76
median fluorescence [10]: 2.89
binding result [12]: no binding
binding result [13]: no binding
binding result [14]: no binding
binding result [17]: no binding
binding result [15]: no binding
binding result [16]: no binding
